B1: ES46: dsRNA trigger SEQ ID NO 110; gene target Hypotethical effector (nucleic acid)
DNA: TTGGAAGAACCGCCAGAAAACCCAATCAGATACCGATCTCTACTCGGATCATCATTTCACTTCGCAACATGCAATTAACGGTTATGTACCTTCTATAGGCTTTGAATCCGATGGTTATGGGATTAGTAAGAGATCTAATCGTAAAACTGTTCATGGATATTACTGTGGGAGCTCAAAACATGAGCAGCATTTTTATGAGCAGGACTATATTAAAATATATACATGTCAAACATAATGCAAACTTAATTCCATATAGTTAACTGAAATGGTCATTTTTTCACAGCTTTAACTCAATTCCTTTTGAAGAGTGATAACTTTTACTTGCAATTCCTAATTAAAATAAGAGCACAAGCCTTAATTTTTGGATCTAAAATATCAATGCCAACCCCTTGTGCACTGTTGGTAGTGAAAATCTTCGTTATTTGTGACAACATCCACAATCTCGCACTGCGTATTGATA
B2: GS2382 (nucleic acid)
sense: AAAAGUUAUGGCGGAAAUCACUAUAUAUACUGCUUCACAUGCCUUACAAGGAGAAGAGGUCCGUGAGAAUUUUGACUCAUCUUUUGCCGCUCUUUAUCAUGAUCUUGAUAUGGGAUUUACACCGAUCAACUUUACAUUUUACUGGGCACCUCUACCUUGGAAUCGUGCUCGUGAUCAUGCCCAAAGAACUGUUGCUAGGA
antisense: UCCUAGCAACAGUUCUUUGGGCAUGAUCACGAGCACGAUUCCAAGGUAGAGGUGCCCAGUAAAAUGUAAAGUUGAUCGGUGUAAAUCCCAUAUCAAGAUCAUGAUAAAGAGCGGCAAAAGAUGAGUCAAAAUUCUCACGGACCUCUUCUCCUUGUAAGGCAUGUGAAGCAGUAUAUAUAGUGAUUUCCGCCAUAACUUUU
B3: GS2384 (nucleic acid)
sense: AUGGGAUUUACACCGAUCAACUUUACAUUUUACUGGGCACCUCUACCUUGGAAUCGUGCUCGUGAUCAUGCCCAAAGAACUGUUGCUAGGACUUAUAUGAAUAUAAUCCAAGCUCGUAGAGAAGAGAAAAGAAGCGGUGAGAAUAAGCAUGAUAUAAUGUGGGAGUUGAUGCGUUCCACUUAUAAAGACGGGACUCCGGU
antisense: ACCGGAGUCCCGUCUUUAUAAGUGGAACGCAUCAACUCCCACAUUAUAUCAUGCUUAUUCUCACCGCUUCUUUUCUCUUCUCUACGAGCUUGGAUUAUAUUCAUAUAAGUCCUAGCAACAGUUCUUUGGGCAUGAUCACGAGCACGAUUCCAAGGUAGAGGUGCCCAGUAAAAUGUAAAGUUGAUCGGUGUAAAUCCCAU
B4: GS2655 (nucleic acid)
sense: UGCCAUUCGCGUAUUUUUCUAUUCGAAGACACUCAGUCCUUCAGAGAUUAUUCCAGAAUUGUAUCCUCAAUUACAAUCUUAUUUUUACACAAUACCUCUUUCCCCUAAAUAAAGUACUACAAUGUCAAAUUCCGAAUUAGCAGUUUCGUAUGCUGCCCUUAUCCUCGCAGAUGACGGGGUUGACGUCACAGCAGAUAAGCUACAAUCAUUAAUCAAGGCUGCUGGUAUUGAUGAUGUUGAGCCAAUUUGGACUACUUUAUUUGCCAAGGCUCUCGAUGGCAAAGAUGUGAAAGAUAUGCUCCUGAAUGUAG
antisense: CUACAUUCAGGAGCAUAUCUUUCACAUCUUUGCCAUCGAGAGCCUUGGCAAAUAAAGUAGUCCAAAUUGGCUCAACAUCAUCAAUACCAGCAGCCUUGAUUAAUGAUUGUAGCUUAUCUGCUGUGACGUCAACCCCGUCAUCUGCGAGGAUAAGGGCAGCAUACGAAACUGCUAAUUCGGAAUUUGACAUUGUAGUACUUUAUUUAGGGGAAAGAGGUAUUGUGUAAAAAUAAGAUUGUAAUUGAGGAUACAAUUCUGGAAUAAUCUCUGAAGGACUGAGUGUCUUCGAAUAGAAAAAUACGCGAAUGGCA
B5: GS2656 (nucleic acid)
sense: GCCCGCUUCCUCAGCUAUUCUUGCCUGUUUUGCGUUGACCACAUCCAUAAUUACGCCACCCUUCAACAUGCGAGCCAGGCCGGUUUUGACCCCAAAAUUCUUUUGUCCCACAGGCUUUGAGGUGCCUUUAUUGAUUCCAUUAUUAACGCCACCAUCAGCAGAGACAGGAAUAGGGAUUUCAGUGGCCAUCUUGCAAUUAUCUCAUAAAUAGUGGUAUUAGUUAAGCGCCCGAAGGUUCUUGUCAAAUUCUUCUUGCAAAUAUUAGUAUCAAGAGUUUGCUGAAGAUAUAAAACUAAGAAACGAAUUGUAAUUAACAAAUGGAUUGUAAAAUUUCUCAAAAUGACCGCCUGGUCGAUAUGACUAUGACGUUUAGAGCCAGGAAGUGUUGCAGGAAAAA
antisense: UUUUUCCUGCAACACUUCCUGGCUCUAAACGUCAUAGUCAUAUCGACCAGGCGGUCAUUUUGAGAAAUUUUACAAUCCAUUUGUUAAUUACAAUUCGUUUCUUAGUUUUAUAUCUUCAGCAAACUCUUGAUACUAAUAUUUGCAAGAAGAAUUUGACAAGAACCUUCGGGCGCUUAACUAAUACCACUAUUUAUGAGAUAAUUGCAAGAUGGCCACUGAAAUCCCUAUUCCUGUCUCUGCUGAUGGUGGCGUUAAUAAUGGAAUCAAUAAAGGCACCUCAAAGCCUGUGGGACAAAAGAAUUUUGGGGUCAAAACCGGCCUGGCUCGCAUGUUGAAGGGUGGCGUAAUUAUGGAUGUGGUCAACGCAAAACAGGCAAGAAUAGCUGAGGAAGCGGGC
B6: GS2660 (nucleic acid)
sense: GUCGUAAUGAUCUUGGCCAAUAAUUCGAGGGUCAAGCAUUCGAGAUUUAGACUCAAGGGGAUCUACCGCUGGAUAGAUACCUAAUUCUGAAAUACCACGUGAUAAUACAGUAGUUGCAUCUAAAUGAGCAAACGUUGUUGCGGGUGCUGGAUCCGUCAGAUCAUCAGCUGGCACGUAAACAGCUUGCACUGAAGUGAUUGAGCCUUUGGUAGUUGUUGUAAUUCGCUCUUGCAUAAGACCCAUAUCUACUGCAAGUGUAGGUUGAUAACCAACUGCAGAGGGAAUACGUCCGAGAAGAGCAGAGACUUCGGAGCCGGCCUGAGUGAAACGAAAAAUAUUAUCAAUGAAAAGUAAUACAUCUUGUCCUUCUUCAUCACGGAAAUACUCAGCAAUAGUUA
antisense: UAACUAUUGCUGAGUAUUUCCGUGAUGAAGAAGGACAAGAUGUAUUACUUUUCAUUGAUAAUAUUUUUCGUUUCACUCAGGCCGGCUCCGAAGUCUCUGCUCUUCUCGGACGUAUUCCCUCUGCAGUUGGUUAUCAACCUACACUUGCAGUAGAUAUGGGUCUUAUGCAAGAGCGAAUUACAACAACUACCAAAGGCUCAAUCACUUCAGUGCAAGCUGUUUACGUGCCAGCUGAUGAUCUGACGGAUCCAGCACCCGCAACAACGUUUGCUCAUUUAGAUGCAACUACUGUAUUAUCACGUGGUAUUUCAGAAUUAGGUAUCUAUCCAGCGGUAGAUCCCCUUGAGUCUAAAUCUCGAAUGCUUGACCCUCGAAUUAUUGGCCAAGAUCAUUACGAC
B7: GS2666 (nucleic acid)
sense: UUCGGCAUAUCAACGUAAAAAAAAAAUAAAUCGACACAAAACAGCUCAAUACCGUAGUUUAUCACCAUGCUUACAAUUACGUAAACGGAGGUCUGCAAAGAGCCUUAAGUCUUUGGAAAUAUCAUGCAGUAGUGGUAUUGAAAAAGGAACCACUAGCUUCGUAAACUAUACCCCAGAAGAUUCCCAGAAGAUUUUAAAUGGAGUUGCUCCGUCUGGGAGUAACAAGACCAAAGCUCGAAGGGAGAAAGAGGCCUUGGAAAAACGCCAAAAGUUAU
antisense: AUAACUUUUGGCGUUUUUCCAAGGCCUCUUUCUCCCUUCGAGCUUUGGUCUUGUUACUCCCAGACGGAGCAACUCCAUUUAAAAUCUUCUGGGAAUCUUCUGGGGUAUAGUUUACGAAGCUAGUGGUUCCUUUUUCAAUACCACUACUGCAUGAUAUUUCCAAAGACUUAAGGCUCUUUGCAGACCUCCGUUUACGUAAUUGUAAGCAUGGUGAUAAACUACGGUAUUGAGCUGUUUUGUGUCGAUUUAUUUUUUUUUUACGUUGAUAUGCCGAA

System: E. necator
Test: Leaf disc assay, dry inoculum (settling tower), decrease in disease severity / hyphal growth (Example 2)
Conditions: decrease in disease severity (hyphal growth) relative to untreated control, value ± SE; for % decrease =/− SE TP1: time point 1 (untreated control hyphal growth ≥50%); for % decrease =/− SE TP2: time point 2

Molecule | % decrease =/− SE TP1 [%] | % decrease =/− SE TP2 [%]
B1 | 6 ± 0 | 5 ± 0
B2 | 17 ± 0 | 4 ± 0
B3 | 20 ± 0 | 8 ± 0
B4 | 26 ± 9 | 9 ± 9
B5 | 34 ± 5 | 46 ± 6
B6 |  | 24 ± 8
B7 | 14 ± 7 | 
